Experimental data from publication PMC12187079 (Nature, 2024).

Experiments:
Test in all cases: immunostaining of cells or tissue
Conditions in all cases: one partner purified
RaTG13 NTD-mFc = RaTG13 NTD-mFc (Bat coronavirus RaTG13 (MN996532))
SARS-CoV-2 NTD-mFc = SARS-CoV-2 NTD-mFc (SARS-CoV-2 Wuhan-Hu-1 (NC_045512))
BANAL-20-52 NTD-mFc = BANAL-20-52 NTD-mFc (Bat coronavirus BANAL-20-52/Laos/2020 …)

Measured: binding result

B1: S2L20-CVR (receptor)
VH: EVQLVESGGGVVQPGGSLRLSCAASGFTFNSYGMHWVRQAPGKGLEWVAFIRYDGGNKYYADSVKGRFTISRDNSKNTLYLQMKSLRAEDTAVYYCANLKDSRYSGSYYDYWGQGTLVTVS
VL: not shown
notes: also called HEK293T-S2L20-CVR; source: HEK293T, stably expressing (lentiviral transduction), on cells
binds: all assays above
